From patent US20230312744A1, “Modulatory Substance of Tumor Immune Microenvironment, and Preventive, Diagnostic and/or Therapeutic Utilization of the Same” (The University Of Tokyo, priority 2020, published 2023) come the findings set out here.

One assay relates to SL4 tumors. In words: Proliferation assay of subcutaneously transplanted SL4 tumor in C57BL/6 mice (tumor volume). The conditions noted are these: 200 μg/mouse intraperitoneally every other day from Day 1 after transplantation, vs control IgG, FIG. 13(a). It counts as in vivo. How it is done: (§1) In FIG. 13(a), SL4 cells (1×10^5 cells) were subcutaneously transplanted into C57BL/6 mice. The monoclonal antibody (55F3) (n=5) reacting against TCTP or control IgG (n=6) was intraperitoneally administered to the mice, every other day from one day after the transplantation (200 μg/mouse). The tumor volume was measured over time. In FIG. 13(b), on Day 13 after the transplantation, single cell suspensions were prepared from tumors, and were then subjected to a flow cytometry analysis (n=5). […] In FIG. 13(c), SL4 cells (1×10^5 cells) were subcutaneously transplanted into C57BL/6 mice (n=6). After the transplantation, DHA (50 mg/kg) was intraperitoneally […] into the mice every day. The tumor volume was measured over time. In FIG. 13(d), SL4 cells (1×10^5 cells) were subcutaneously transplanted into C57BL/6 mice (n=6). […] The tumor volume was measured over time. […] In FIG. 13(f), the amount of TCTP in sera derived from healthy subjects (people who are not affected with cancer) (n=5) and colorectal cancer patients (n=14) was quantified by immunoblotting. […] In FIG. 13 (g), (right view) the relative staining intensity by the anti-TCTP antibody was semi-quantified, and the staining intensity of the colorectal cancer tissues was compared with the staining intensity of the normal large intestinal tissues (n=45). […]

In the next assay the test system is PMN-MDSCs in the TIME. In words: Flow cytometry of tumor-infiltrating cells from SL4 tumors (PMN-MDSCs in CD45+ cells). Format: in vivo. The conditions noted are these: 55F3 200 μg/mouse i.p., Day 13 after transplantation, ratio of PMN-MDSCs to CD45+ cells, vs control IgG. How it is done:
as §1, with “time.” for “time. In FIG. 13(d), SL4 cells (1×10^5 cells) were subcutaneously transplanted into C57BL/6 mice (n=6).”
Tumor-infiltrating cells were recovered after subcutaneous transplantation of a tumor into mice, and were then analyzed by flow cytometry. […]

B1: 55F3: Mouse monoclonal antibody against human TCTP peptide SEQ ID NO: 25; CDRs SEQ ID NO: 1-6, VH SEQ ID NO: 19, VL SEQ ID NO: 22 (antibody, listed as Mus musculus)
VH: MRVLILLWLFTAFPGILSDVQLQESGPGLVKPSQSLSLTCTATGYSIASDYAWNWIRQFPGNKLEWMGYINYSGSTGYNPSLKSRISITRDTSKNQFFLQLNSVTTEDTATYYCARFEAGYWGQGTTLTVSSAKTTPPSVYPLAPGSAAQTNSMVTLGCLVKGYFPEPVT
VL: MDMRTPAQFLGILLLWFPGIKCDIKMTQSPSSMSASLGERVTITCKASQDINRYLSWFQQKPGKSPKTLIYRANRLVDGVPSRFSGSGSGQDYSLTISSLEYGDMGIYYCLQYNEFPLTFGAGTKLELKRADAAPTVSIFPPSSEQLTSGGASVVCFLN
As to B1, in the assay on SL4 tumors, the “proliferation speed of SL4 tumor cells (tumor volume)” value is given as “decreased”. In addition, the “amount of PMN-MDSCs in the TIME” value in the assay with PMN-MDSCs in the TIME is reported as “decreased”.
